Paper PMC5042576

Target: Actin filaments decorated with Tpm3.1 (chicken | human) (UniProt P68139)

Mouse melanophilin with N-terminal SNAP tag and C-terminal Flag tag, sequence (Q91V27 whole entry): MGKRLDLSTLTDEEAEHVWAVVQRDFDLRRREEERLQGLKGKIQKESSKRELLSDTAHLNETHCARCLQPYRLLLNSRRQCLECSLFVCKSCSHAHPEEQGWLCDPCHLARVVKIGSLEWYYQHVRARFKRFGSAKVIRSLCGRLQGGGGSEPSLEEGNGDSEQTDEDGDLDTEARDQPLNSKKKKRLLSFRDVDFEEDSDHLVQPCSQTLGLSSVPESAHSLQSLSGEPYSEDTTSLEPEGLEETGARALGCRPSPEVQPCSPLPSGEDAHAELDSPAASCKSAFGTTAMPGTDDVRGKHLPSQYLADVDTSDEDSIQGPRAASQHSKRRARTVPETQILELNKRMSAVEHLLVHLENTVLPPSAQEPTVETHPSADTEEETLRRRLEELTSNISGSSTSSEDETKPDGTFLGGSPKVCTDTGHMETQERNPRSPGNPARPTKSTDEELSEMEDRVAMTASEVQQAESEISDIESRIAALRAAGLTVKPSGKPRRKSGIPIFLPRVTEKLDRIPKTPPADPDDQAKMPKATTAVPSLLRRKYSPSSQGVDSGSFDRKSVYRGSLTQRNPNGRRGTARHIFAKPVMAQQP

fold affinity against actin–Tpm1.8 and actin–Tpm4.2: 2 fold
Substance: Mouse melanophilin with N-terminal SNAP tag and C-terminal Flag tag (from UniProt Q91V27 1-590) (natural protein)
